The values that follow come from publication PMC6522505.

This test addresses secCl (CG7589), Cys-loop ligand-gated ion channel subunit (Drosophila melanogaster).

With “CG6927, Cys-loop ligand-gated ion channel subunit (natural protein)”, the shift in reversal potential in low chloride buffer, Xenopus oocytes co-expressing secCl and CG6927 stood at 53 mV.
